Reference: patent US20150359864A1, “PHARMACEUTICAL COMPOSITION CONTAINING PEPTIDES” (ONCOTHERAPY SCIENCE, INC., priority 2012, published 2015)

Assays:
[1] = Combination peptide injection preparation using arginine solution (Example 4); assay type: physicochemical; parameters: key to Dissolution on successive addition, Example 4-1 (Arg) (1 mg each) / Dissolution on successive addition, Example 4-2 (Arg) (2 mg each): ◯: Dissolved; X: White Turbid; conditions: for Dissolution on successive addition, Example 4-1 (Arg) (1 mg each): 1 mg each peptide added one after another to 1 ml arginine solvent
Experimental: In order to prepare an injection preparation containing combination of the peptides shown in Table 1, the 10 types of peptides shown in Table 1 were added in an amount of 1 mg each to 1 ml of the injection solvent containing arginine as used in Example 2. The entire amount of one peptide was dissolved upon addition thereof to obtain a colorless and clear solution, and another peptide was then added thereto.
Subsequently, preparation of another injection preparation containing combination of the peptides was attempted in the same manner as described above, except that the amount of each peptide added was changed to 2 mg. […] Thus, no other peptides were added thereafter.

[2] = Preparation of single peptide injection preparations using injection solvent (Comparative Example 1); conditions: for Whether injection preparation could be prepared (in words): 2 mg to 20 mg peptide in 1 ml injection solvent; for Peptide concentration at which injection preparation could be prepared, Comparative Example 1 (injection solvent): injection solvent (water), room temperature
Experimental: Pharmaceutical water defined by the Japanese Pharmacopoeia was used as an injection solvent.
In order to prepare formulations containing one of the peptides shown in Table 1, each of the peptides shown in Table 1 were added to 1 ml of an injection solvent. The resultants were agitated at room temperature so as to dissolve the entire amounts of the peptides added, and thereby colorless and clear solutions of each peptide were obtained. Thereafter, the peptide solutions were sterilized via filtration (with the use of a 0.22-μm filter) to obtain injection preparations.
The amounts of peptides added varied within the range of 2 mg to 20 mg, and injection preparations were prepared at each concentration. […] For these peptides, peptide concentrations that enable preparation of injection preparations were investigated.

[3] = Preparation of single peptide injection preparations using sodium carbonate solution (Example 1); assay type: physicochemical; conditions: for Whether injection preparation could be prepared (in words): 5 mg to 20 mg peptide in 1 ml injection solvent containing sodium carbonate; for Peptide concentration at which injection preparation could be prepared, Example 1 (Na2CO3): 41 mg sodium carbonate decahydrate in 1 ml injection solvent, class symbol; for pH of injection preparation, Example 1 (Na2CO3): injection solvent containing sodium carbonate
Experimental: (§1) 41 mg of sodium carbonate decahydrate (Na2CO3.10H2O) was dissolved in 1 ml of an injection solvent to obtain an injection solvent containing sodium carbonate. In order to prepare formulations of the each peptide that was not dissolved in an injection solvent in Comparative Example 1, Peptides 1, 2, 4, 7, and 10 were separately added to 1 ml of injection solvents containing sodium carbonate.
In the case of Peptide 1, it was confirmed that the injection preparation could be obtained with the addition of 9 mg of peptide at the maximum. All the obtained injection preparations had pH levels within adequate range for injection (Table 2).

[4] = Preparation of single peptide injection preparations using arginine solution (Example 2); assay type: physicochemical; conditions: for Whether injection preparation could be prepared (in words): 5 mg to 20 mg peptide in 1 ml injection solvent containing arginine; for Peptide concentration at which injection preparation could be prepared, Example 2 (Arg): 40 mg L-arginine in 1 ml injection solvent, class symbol; for pH of injection preparation, Example 2 (Arg): injection solvent containing arginine
Experimental: as §1, with “40” for “41”, “L-arginine” for “sodium carbonate decahydrate (Na2CO3.10H2O)”, “arginine.” for “sodium carbonate.”, “of” for “of the”
In the case of Peptide 1, it was confirmed that the injection preparation could be obtained with the addition of 6 mg of peptide at the maximum. All the obtained injection preparations had pH levels within adequate range for injection (Table 2).

[5] = Combination peptide injection preparation using sodium carbonate/arginine solution (Example 6); assay type: physicochemical; parameters: key to Dissolution on successive addition, Example 6 (Na2CO3/Arg) (2 mg each) / Dissolution of further 2 mg of Peptide 2, Example 6 (Na2CO3/Arg): ◯: Dissolved; X: White Turbid; conditions: 2 mg each peptide added one after another to 1 ml sodium carbonate/arginine solvent
Experimental: (§2) In order to prepare an injection preparation containing combination of the peptides shown in Table 1, the 10 types of peptides shown in Table 1 were added in an amount of 2 mg each to 1 ml of the injection solvent containing sodium carbonate and arginine as used in Example 3. The addition of each peptide was conducted in the same manner as in Example 4.

[6] = Preparation of injection preparations using sodium carbonate/arginine solution (Example 3); assay type: physicochemical; conditions: for Peptide concentration at which injection preparation could be prepared, Example 3 (Na2CO3/Arg): 41 mg sodium carbonate decahydrate and 40 mg L-arginine in 1 ml injection solvent; for pH of injection preparation, Example 3 (Na2CO3/Arg): injection solvent containing sodium carbonate and arginine
Experimental: 41 mg of sodium carbonate decahydrate and 40 mg of L-arginine were dissolved in 1 ml of an injection solvent to obtain an injection solvent containing sodium carbonate and arginine.
In the case of Peptide 3, it was confirmed that the injection preparation could be obtained with the addition of 15 mg of peptide at the maximum. All the obtained injection preparations had pH levels within adequate range for injection (Table 2).

[7] = Combination peptide injection preparation using sodium carbonate solution (Example 5); assay type: physicochemical; parameters: key to Dissolution on successive addition, Example 5 (Na2CO3) (2 mg each) / Dissolution of further 2 mg of Peptide 2, Example 5 (Na2CO3): ◯: Dissolved; X: White Turbid; conditions: 2 mg each peptide added one after another to 1 ml sodium carbonate solvent
Experimental: as §2, with “carbonate” for “carbonate and arginine”, “1.” for “3.”

[8] = Stability of lyophilized formulation, peptide content in the vial by HPLC (Example 7); assay type: physicochemical; conditions: 25 degrees C., humidity 60%, relative to comparative solution peak area = 100%
Experimental: 107.7 g of L-arginine and 110.4 g of sodium carbonate hydrate were dissolved in 5,500 ml of an injection solvent. Peptide 1, Peptide 2, Peptide 3, and Peptide 4 were dissolved therein in amounts of 6.2 g, 7.5 g, 8.7 g, and 8.0 g, respectively. Thereafter, the total amount of the solution was adjusted to 7,000 ml with the addition of an injection solvent, and a combination peptide solution was obtained. […] Following lyophilization, the vial was fully stoppered and the aluminum cap seaming was conducted. Thus, a lyophilized formulation was produced.
Further, the results shown above were subjected to regression analysis, so as to predict stability 24 months later.

Sequence	Dissolution on successive addition, Example 4-1 (Arg) (1 mg each) [1]	Whether injection preparation could be prepared (in words) [2]	Peptide concentration at which injection preparation could be prepared, Comparative Example 1 (injection solvent) ([2]; class symbol)	Dissolution on successive addition, Example 6 (Na2CO3/Arg) (2 mg each) [5]	Peptide concentration at which injection preparation could be prepared, Example 3 (Na2CO3/Arg) ([6]; class symbol)	pH of injection preparation, Example 3 (Na2CO3/Arg) [6]	Dissolution on successive addition, Example 5 (Na2CO3) (2 mg each) [7]	other results
DYLNEWGSRF (T cell epitope) [Peptide 10]	◯	not possible to prepare the injection preparations regardless of the amounts of peptides added	X (0.08 mg/ml or less)	◯	⊚ (20 mg/ml or more)	10.14	◯	Whether injection preparation could be prepared (in words) [3]: possible to prepare the injection preparations regardless of the amounts of peptides added; Peptide concentration at which injection preparation could be prepared, Example 1 (Na2CO3) [3]: ⊚ (20 mg/ml or more); pH of injection preparation, Example 1 (Na2CO3) [3]: 9.35; Whether injection preparation could be prepared (in words) [4]: possible to prepare the injection preparations regardless of the amounts of peptides added; Peptide concentration at which injection preparation could be prepared, Example 2 (Arg) [4]: ⊚ (20 mg/ml or more); pH of injection preparation, Example 2 (Arg) [4]: 9.87
EYCPGGNLP (EYCPGGNLF; T cell epitope) [Peptide 8]	◯	possible to prepare the injection preparations regardless of the amounts of peptides added	⊚ (20 mg/ml or more)	◯	⊚ (20 mg/ml or more)	9.80	◯	–
KVYLRVRPLL (T cell epitope) [Peptide 3]	◯	possible to prepare the injection preparations regardless of the amounts of peptides added	⊚ (20 mg/ml or more)	◯	–	–	◯	Dissolution on successive addition (in words), Example 4 ([1]; 2 mg each in 1 ml arginine solvent, added after Peptide 1 and Peptide 2): white turbidity; Dissolution on successive addition, Example 4-2 (Arg) (2 mg each) ([1]; 2 mg each peptide added one after another to 1 ml arginine solvent): X; Peptide concentration at which injection preparation could be prepared, Example 3 (Na2CO3/Arg) ([6]; numeric): 15 mg/mL; Maximum amount of peptide added that gave an injection preparation ([6]; in 1 ml injection solvent containing sodium carbonate and arginine): 15 mg; Peptide content in the vial, 0 months [8]: 103.7%; Peptide content in the vial, 1 month [8]: 103.4%; Peptide content in the vial, 3 months [8]: 102.7%; Peptide content in the vial, 6 months [8]: 100.1%
RFVPDGNRI (T cell epitope) [Peptide 6]	◯	possible to prepare the injection preparations regardless of the amounts of peptides added	⊚ (20 mg/ml or more)	◯	⊚ (20 mg/ml or more)	10.55	◯	–
RYCNLEGPPI (T cell epitope) [Peptide 5]	◯	possible to prepare the injection preparations regardless of the amounts of peptides added	⊚ (20 mg/ml or more)	◯	⊚ (20 mg/ml or more)	10.20	◯	–
SYRNEIAYL (T cell epitope) [Peptide 7]	◯	not possible to prepare the injection preparations regardless of the amounts of peptides added	–	◯	⊚ (20 mg/ml or more)	9.97	◯	Peptide concentration at which injection preparation could be prepared, Comparative Example 1 (injection solvent) ([2]; numeric): 0.5 mg/mL; Whether injection preparation could be prepared (in words) [3]: possible to prepare the injection preparations regardless of the amounts of peptides added; Peptide concentration at which injection preparation could be prepared, Example 1 (Na2CO3) [3]: ⊚ (20 mg/ml or more); pH of injection preparation, Example 1 (Na2CO3) [3]: 9.18; Whether injection preparation could be prepared (in words) [4]: possible to prepare the injection preparations regardless of the amounts of peptides added; Peptide concentration at which injection preparation could be prepared, Example 2 (Arg) [4]: ⊚ (20 mg/ml or more); pH of injection preparation, Example 2 (Arg) [4]: 9.68
VYGIRLEHF (T cell epitope) [Peptide 9]	◯	possible to prepare the injection preparations regardless of the amounts of peptides added	⊚ (20 mg/ml or more)	◯	⊚ (20 mg/ml or more)	9.84	◯	–
